Assay results published in patent US20050053985A1 (PTC THERAPEUTICS, published 2005).

target: SmB/B′ proteins (human, UniProt P14678 1-240); experiment: co-purification with the His-Flag-tagged bait from stable 293 cells (anti-Flag beads, then Ni beads); SDS-PAGE, Western blot with Y12 antibody (SmB/B′)
Method: Proteins co-purified with His-Flag-HsSen2, His-Flag-HsSen2deltaEx8, His-Flag-HsSen34, His-Flag-HsSen15 and His-Flag-HsClp1 were analyzed by SDS-PAGE followed by Western blotting with antibodies against Symplekin, CstF64. Y12 antibody that recognizes SmB/B′ proteins was used a negative control.
Complexes purified using the different epitope-tagged subunits of the endonuclease complexes were analyzed by Western blotting using antibodies specific for Symplekin and CstF64, components of the human pre-mRNA 3′-end processing complex. Y12 antibody (known to recognize pre-mRNA splicing snRNP […] proteins) was used as a negative control. […] Similar amounts of 3′-end complexes were purified from all His-Flag-tagged tRNA endonuclease subunits. Since the purification conditions were very stringent and utilized two affinity chromatography steps (see experimental procedures), the interaction between tRNA splicing endonuclease and pre-mRNA 3′-end processing factors is quite robust. Immunoprecipitation under standard salt conditions to more accurately determine the amount of 3′-end factors associated with the tRNA endonuclease was also performed. It was shown that as much as 1% of the 3′-end processing factors are associated with the tRNA endonuclease. […] Furthermore, His-Flag-HsSen2deltaEx8 and His-Flag-HsClp1 were able to associate with a larger proportion of the 3′-end formation complexes (FIG. 29, compare lane 8 and 11 to 7, 9, 10). [0764] 5.2.2.7 Depletion of SEN2 Causes Defects in tRNA Splicing and Pre-mRNA 3′ end Formation

| binding result | Binder |
| --- | --- |
| no binding | His-Flag-HsSen2 (other, not shown: small tags and cut ends, Bait expressed stably in 293 cells and purified with its partners over anti-Flag and Ni beads; also called His-Flag-Sen2; His-Flag-Sen2WT) MAEAVFHAPKRKRRVYETYESPLPIPFGQDHGPLKEFKIFRAEMINNNVIVRNAEDIEQLYGKGYFGKGILSRSRPSFTISDPKLVAKWKDMKTNMPIITSKRYQHSVEWAAELMRRQGQDESTVRRILKDYTKPLEHPPVKRNEEAQVHDKLNSGMVSNMEGTAGGERPSVVNGDSGKSGGVGDPREPLGCLQEGSGCHPTTESFEKSVREDASPLPHVCCCKQDALILQRGLHHEDGSQHIGLLHPGDRGPDHEYVLVEEAECAMSEREAAPNEELVQRNRLICRRNPYRIFEYLQLSLEEAFFLVYALGCLSIYYEKEPLTIVKLWKAFTVVQPTFRTTYMAYHYFRSKGWVPKVGLKYGTDLLLYRKGPPFYHASYSVIIELVDDHFEGSLRRPLSWKSLAALSRVSVNVSKELMLCYLIKPSTMTDKEMESPECMKRIKVQEVILSRWVSSRERSDQDDL |
| no binding | His-Flag-HsSen15 (other, Bait expressed stably in 293 cells; also called His-Flag-Sen15; tagged HsSen15; not shown: His and Flag tag from the His-Flag-pcDNA3.1/Hygro vector) MEERGDSEPTPGCSGLGPGGVRGFGDGGGAPSWAPEDAWMGTHPKYLEMMELDIGDATQVYVAFLVYLDLMESKSWHEVNCVGLPELQLICLVGTEIEGEGLQTVVPTPITASLSHNRIREILKASRKLQGDPDLPMSFTLAIVESDSTIVYYKLTDGFMLPDPQNISLRR |
| no binding | His-Flag-HsSen2deltaEx8 (other, not shown: small tags and cut ends, also called His-Flag-Sen2ΔEx8; His-Flag-Sen2deltaEx8) MAEAVFHAPKRKRRVYETYESPLPIPFGQDHGPLKEFKIFRAEMINNNVIVRNAEDIEQLYGKGYFGKGILSRSRPSFTISDPKLVAKWKDMKTNMPIITSKRYQHSVEWAAELMRRQGQDESTVRRILKDYTKPLEHPPVKRNEEAQVHDKLNSGMVSNMEGTAGGERPSVVNGDSGKSGGVGDPREPLGCLQEGSGCHPTTESFEKSVREDASPLPHVCCCKQDALILQRGLHHEDGSQHIGLLHPGDRGPDHEYVLVEEAECAMSEREAAPNEELVQRNRLICRRNPYRIFEYLQLSLEEEPLTIVKLWKAFTVVQPTFRTTYMAYHYFRSKGWVPKVGLKYGTDLLLYRKGPPFYHASYSVIIELVDDHFEGSLRRPLSWKSLAALSRVSVNVSKELMLCYLIKPSTMTDKEMESPECMKRIKVQEVILSRWVSSRERSDQDDL |
| no binding | His-Flag-HsSen34 (other, not shown: small tags and cut ends, Bait expressed stably in 293 cells; also called His-Flag-Sen34; His-Flag-34) MLVVEVANGRSLVWGAEAVQALRERLGVGGRTVGALPRGPRQNSRLGLPLLLMPEEARLLAEIGAVTLVSAPRPDSRHHSLALTSFKRQQEESFQEQSALAAEARETRRQELLEKITEGQAAKKQKLEQASGASSSQEAGSSQAAKEDETSDGQASGEQEEAGPSSSQAGPSNGVAPLPRSALLVQLATARPRPVKARPLDWRVQSKDWPHAGRPAHELRYSIYRDLWERGFFLSAAGKFGGDFLVYPGDPLRFHAHYIAQCWAPEDTIPLQDLVAAGRLGTSVRKTLLLCSPQPDGKVVYTSLQWASLQ |
